Target: dynein-dynactin-BicD2N (DDB) complex (mouse | rat (endogenous in rat brain cytosol)) (UniProt Q921C5)
Test: multicolor single-molecule TIRF microscopy

Chain of UniProt Q921C5 (Q921C5 whole entry, looked up, one chain of several): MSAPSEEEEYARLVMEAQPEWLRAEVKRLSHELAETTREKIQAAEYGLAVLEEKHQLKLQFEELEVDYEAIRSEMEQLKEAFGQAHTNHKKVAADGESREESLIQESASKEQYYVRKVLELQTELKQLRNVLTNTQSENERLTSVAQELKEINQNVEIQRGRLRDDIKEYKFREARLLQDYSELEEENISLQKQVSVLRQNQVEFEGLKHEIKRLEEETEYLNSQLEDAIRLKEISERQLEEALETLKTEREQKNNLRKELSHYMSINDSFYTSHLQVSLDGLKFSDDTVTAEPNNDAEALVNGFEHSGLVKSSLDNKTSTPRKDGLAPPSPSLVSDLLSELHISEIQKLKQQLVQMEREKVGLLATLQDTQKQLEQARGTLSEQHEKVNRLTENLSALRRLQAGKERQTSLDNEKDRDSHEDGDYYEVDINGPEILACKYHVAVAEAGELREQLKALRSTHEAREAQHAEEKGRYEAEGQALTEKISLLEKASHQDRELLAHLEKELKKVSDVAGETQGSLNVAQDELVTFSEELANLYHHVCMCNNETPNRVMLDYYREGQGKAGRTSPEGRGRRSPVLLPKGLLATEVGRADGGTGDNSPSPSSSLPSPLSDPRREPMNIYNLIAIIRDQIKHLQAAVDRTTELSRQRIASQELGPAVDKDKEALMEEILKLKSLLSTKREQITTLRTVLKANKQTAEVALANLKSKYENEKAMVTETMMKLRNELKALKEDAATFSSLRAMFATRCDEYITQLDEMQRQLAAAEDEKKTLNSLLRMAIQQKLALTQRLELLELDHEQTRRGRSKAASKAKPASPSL

percent of DDB-L complexes with both 647- and 488-SNAP LIS1: 8%
percent of DDB-L complexes with two LIS1 dimers: < 24%
percent of diffusive DDB complexes with a bound LIS1: 34%
percent of processive DDB complexes with a bound LIS1: 18%
stoichiometry N (LIS1 dimer per DDB): 1
stoichiometry N (LIS1 dimers per DDB): 2
B1: Rattus norvegicus LIS1 (PAFAH1b1), StrepII-SNAPf tagged, wild type (natural protein)
chain: MVLSQRQRDELNRAIADYLRSNGYEEAYSVFKKEAELDMNEELDKKYAGLLEKKWTSVIRLQKKVMELESKLNEAKEEFTSGGPLGQKRDPKEWIPRPPEKYALSGHRSPVTRVIFHPVFSVMVSASEDATIKVWDYETGDFERTLKGHTDSVQDISFDHSGKLLASCSADMTIKLWDFQGFECIRTMHGHDHNVSSVAIMPNGDHIVSASRDKTIKMWEVQTGYCVKTFTGHREWVRMVRPNQDGTLIASCSNDQTVRVWVVATKECKAELREHEHVVECISWAPESSYSSISEATGSETKKSGKPGPFLLSGSRDKTIKMWDVSTGMCLMTLVGHDNWVRGVLFHSGGKFILSCADDKTLRVWDYKNKRCMKTLNAHEHFVTSLDFHKTAPYVVTGSVDQTVKVWECR
modifications: SNAP dye (SNAP-Alexa 647 or SNAP-Surface 488) covalently on the SNAP tag

Reference: publication doi:10.1101/124255
